Literature values as cited in paper PMC8619967.
Read-outs that look alike come from different tables or passages of the source.

What was measured:
[1] = molecular target: HIV-1 capsid (Human immunodeficiency virus 1) (UniProt O93182)
[2] = molecular target: HIV-1 capsid (Human immunodeficiency virus 1) (UniProt O93182); remark: listed apart in the source
[3] = molecular target: HIV-1 CA-NC nanotubes CA-NC (Human immunodeficiency virus 1) (UniProt O93182)
Sequence of HIV-1 CA-NC nanotubes CA-NC (Human immunodeficiency virus 1) (O93182 133-433): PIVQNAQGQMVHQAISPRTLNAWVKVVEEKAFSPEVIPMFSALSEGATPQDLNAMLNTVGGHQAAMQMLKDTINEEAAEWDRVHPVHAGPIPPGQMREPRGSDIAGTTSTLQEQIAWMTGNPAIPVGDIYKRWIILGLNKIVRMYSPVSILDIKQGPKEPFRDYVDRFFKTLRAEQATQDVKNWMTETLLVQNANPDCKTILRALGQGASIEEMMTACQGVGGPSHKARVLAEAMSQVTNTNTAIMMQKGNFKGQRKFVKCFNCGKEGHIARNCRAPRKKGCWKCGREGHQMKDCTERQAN

Sequence of HIV-1 capsid (Human immunodeficiency virus 1) (O93182 133-363): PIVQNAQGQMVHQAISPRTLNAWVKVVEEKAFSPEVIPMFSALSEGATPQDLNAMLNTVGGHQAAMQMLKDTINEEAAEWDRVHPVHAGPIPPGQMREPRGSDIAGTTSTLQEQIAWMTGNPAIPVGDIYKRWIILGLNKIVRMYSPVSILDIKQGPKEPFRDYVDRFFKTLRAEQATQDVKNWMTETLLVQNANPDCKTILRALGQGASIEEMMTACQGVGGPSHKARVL
Sequence of NUP358 CycH (P49792 3067-3223): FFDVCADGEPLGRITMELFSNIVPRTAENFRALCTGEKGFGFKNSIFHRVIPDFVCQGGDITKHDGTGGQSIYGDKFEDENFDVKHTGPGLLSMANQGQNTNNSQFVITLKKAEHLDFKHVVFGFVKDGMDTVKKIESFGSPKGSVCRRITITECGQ
Sequence of TRN-1 (Q92973 whole entry): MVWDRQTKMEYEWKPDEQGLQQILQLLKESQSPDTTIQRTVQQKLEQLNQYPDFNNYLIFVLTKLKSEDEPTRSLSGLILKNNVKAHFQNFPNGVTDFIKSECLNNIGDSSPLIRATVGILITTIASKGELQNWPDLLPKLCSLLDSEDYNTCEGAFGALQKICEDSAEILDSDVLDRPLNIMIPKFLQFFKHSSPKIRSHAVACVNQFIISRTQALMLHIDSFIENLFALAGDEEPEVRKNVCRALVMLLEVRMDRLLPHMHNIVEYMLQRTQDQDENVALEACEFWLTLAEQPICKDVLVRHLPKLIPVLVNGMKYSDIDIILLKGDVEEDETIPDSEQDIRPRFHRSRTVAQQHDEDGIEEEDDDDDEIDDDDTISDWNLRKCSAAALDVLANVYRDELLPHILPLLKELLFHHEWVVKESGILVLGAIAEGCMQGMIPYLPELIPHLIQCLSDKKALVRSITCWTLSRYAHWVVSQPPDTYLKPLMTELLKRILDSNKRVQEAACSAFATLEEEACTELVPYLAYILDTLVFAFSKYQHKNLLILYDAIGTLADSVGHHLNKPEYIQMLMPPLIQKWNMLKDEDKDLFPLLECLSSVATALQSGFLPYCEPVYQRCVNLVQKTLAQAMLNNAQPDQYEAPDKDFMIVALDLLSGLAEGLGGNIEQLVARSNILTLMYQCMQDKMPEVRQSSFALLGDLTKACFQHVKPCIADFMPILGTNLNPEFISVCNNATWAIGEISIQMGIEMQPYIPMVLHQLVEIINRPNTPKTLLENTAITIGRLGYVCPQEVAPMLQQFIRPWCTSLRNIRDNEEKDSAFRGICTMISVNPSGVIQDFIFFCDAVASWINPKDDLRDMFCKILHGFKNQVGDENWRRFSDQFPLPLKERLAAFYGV

## NUP153 FG-motif (from UniProt P49790)
[1]
  Kd: 50 µM

## NUP358 CycH (from UniProt P49792)
[2]
  Kd: 200 µM

## TRN-1 (from UniProt Q92973)
[3]
  Kd: 0.07 µM
